Among the data in PMC9072662 are stoichiometry N values, retold here.

This assay deals with Tetrameric photosystem I from Chroococcidiopsis sp. TS-821 isolated with DDM (Chroococcidiopsis sp. TS-821 (endogenous in TS-821 thylakoids)).

Consider “Tetrameric photosystem I from Chroococcidiopsis sp. TS-821 isolated with DDM (complex)”, for which the stoichiometry N worked out at 4.
